Assay results published in patent US7407939 (CUREGENICS, dated 2008).
Where no end group is shown, it is not given here. Side-chain parts run from the residue outwards. [ ]: non-standard residue; d: D form. The star is where a group is joined. SO2‑IQ = 5-aminoethylsulfoneamide isoquinoline, O=S(=O)(NCCN*)c1cccc2cnccc12; S‑IQ = 5-mercaptoaminopropyl isoquinoline; hLeu = CC(C)CC[C@H](N)C(=O)O; GltNH2 = not defined here; Nle = CCCC[C@H](N)C(=O)O; Orn = NCCC[C@H](N)C(=O)O; bGaba = not defined here; Dab = NCC[C@H](N)C(=O)O; Nva = CCC[C@H](N)C(=O)O; Abu = CC[C@H](N)C(=O)O; Dap = NC[C@H](N)C(=O)O; Ph2 = not defined here; GlyNH2 = aminoglycine; Ava = NCCCCC(=O)O; βAla = NCCC(=O)O

molecular target: protein kinase A, catalytic subunit; experiment: cell-based or functional assay

Activity PKA [µM]	Binder
> 40	RPRTS[Abu][hLeu] [TY 60002-73]
> 40	RPRVS[Abu]F [TY 60002-61]
> 40	RPRTSA[hLeu] [TY 60002-50]
> 40	RPRTS[Dap][hLeu] [TY 60002-96]

molecular target: protein kinase A, catalytic subunit; experiment: cell-based or functional assay; remark: another data set of the same source

IC50 PKA [nM]	Binder
100	RPRTE(S‑IQ)SF [PTR 6104]
100	RPRTE([βAla-S‑IQ])SF [PTR 6102]
12	RPR[Orn]E(SO2‑IQ)SF [PTR 6132]

molecular target: protein kinase A, catalytic subunit; experiment: cell-based or functional assay; remark: another data set of the same source

Binder	% Inhibition PKA [%]
RPR[Nva][GlyNH2][Dap][Ph2] (reading uncertain) [60006-11B]	20
RPR[Nva][GlyNH2]A[hLeu] [60006-5A]	10
RPRTS[GlyNH2]F [60005-5]	40
RPR[Nva][GlyNH2][GltNH2][hLeu] (reading uncertain) [60006-16A]	21
RPR[Nva][GlyNH2][Abu][hLeu] [60006-7B]	24

Other lines, results leading:

% Inhibition PKA [%]	Binder
8	RPRTS[Abu][hLeu] [TY 60002-73]
2	RPRTSA[hLeu] [TY 60002-50]

molecular target: protein kinase A, catalytic subunit; experiment: cell-based or functional assay; remark: another data set of the same source

Binder	PKA IC50 [nM]
RPR[Nle]E([βAla-SO2‑IQ])SF [PTR 6086]	500
RPRTE([βAla-S‑IQ])SF [PTR 6102]	100
RPRTE(SO2‑IQ)SF [PTR 6016]	100
RPRTE([βAla-SO2‑IQ])SF [PTR 6082]	200
RPRTE([Ava-SO2‑IQ])SF [PTR 6090]	600
RPR[Nle]E([βAla-SO2‑IQ])S[Nle] [PTR 6096]	200
RPR[Orn]E([bGaba-SO2‑IQ])SF (reading uncertain) [PTR 6088]	1000

The remaining lines, values ahead:

PKA IC50 [nM]	Binder
100	RPRTE(S‑IQ)SF [PTR 6104]
195	RPR[Nle]E([βAla-SO2‑IQ])[Dab]F [PTR 6140]
53	RPRTD(SO2‑IQ)SF [PTR 6130]
5000	RPR[Nva]E([βAla-SO2‑IQ])A[hLeu] [PTR 6152]
12	RPR[Orn]E(SO2‑IQ)SF [PTR 6132]
100	RPR[Nle]E(SO2‑IQ)SF [PTR 6128]

molecular target: protein kinase A, catalytic subunit; experiment: cell-based or functional assay; remark: another data set of the same source

IC50 µM PKA [µM]	Binder
139	RPR[Nva][GlyNH2]A[hLeu] [60006-5A]
7.5	RPRTS[GlyNH2]F [60005-5]
228	RPRTS[Abu][hLeu] [TY 60002-73]
